Measured values as given in article PMC5180104, “Interaction of cytokeratin 19 head domain and HER2 in the cytoplasm leads to activation of HER2-Erk pathway” (Scientific Reports, 2016).

Target: T1, purified recombinant Flag-tagged HER2 C-terminal domain (human, UniProt P04626 988-1255)
T1 construct: HER2, human, COOH-terminal domain; C-ter is defined as 988-1255 aa in the plasmid section; The results call this protein Flag-tagged; It may be the same construct as m14; source: HEK293T, transfected, purified (antibody bead column)
Assay: pull-down; purified GST fusion proteins and purified HER2 C-terminal domain; Glutathione sepharose 4B (GSH beads)
Conditions: both partners purified

B1: GST-T4 (domain or fragment, human, UniProt P08727 1-79, looked up)
chain: MTSYSYRQSSATSSFGGLGGGSVRFGPGVAFRAPSIHGGSGGRGVSVSSARFVSSSSSGAYGGGYGGVLTASDGLLAGN
notes: KRT19, human, T4 fragment (head domain); also called GST-T4 wt; source: E. coli, purified (Glutathione sepharose 4B column)
binding result: binds
